The test has as its target T1, CD123-his-biotin抗原 (Homo sapiens (Human), UniProt P26951 19-305, biotin label (site not stated)).
T1 construct: Bought from SinoBiological and biotin-labelled; also called CD123-Biotin; CD123抗原; not shown: his tag
T1 sequence: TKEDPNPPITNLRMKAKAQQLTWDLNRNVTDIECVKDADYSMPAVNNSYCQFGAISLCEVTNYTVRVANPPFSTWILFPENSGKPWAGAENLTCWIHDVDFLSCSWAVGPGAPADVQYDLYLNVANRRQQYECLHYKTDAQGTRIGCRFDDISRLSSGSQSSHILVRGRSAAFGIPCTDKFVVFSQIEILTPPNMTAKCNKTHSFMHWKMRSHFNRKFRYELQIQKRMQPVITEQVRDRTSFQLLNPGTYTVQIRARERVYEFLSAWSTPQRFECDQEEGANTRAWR
The test can be described thus: BLI (Octet RED96), CD123-Biotin on AR2G sensor, scFv periplasmic extract as analyte. On the set-up: 响应: unit not given here.

Substitutions are numbered along the chain they refer to. Where “and” joins values, the source holds several entries; their conditions need not be identical. Identical values can stand only once.

A word on the koff: it is the first-order rate constant of dissociation.

B1: scFv 26292 (scFv, V domains shown)
VH: QVQLQQPGAELVRPGASVKLSCKASGYTFTSYWMNWVKQRPDQGLEWIGRIDPYDSETHYNQKFKDKAILTVDKSSSTAYMQLSSLTSEDSAVYYCARGNWDDYWGQGTTLTVSS
VL: DVQITQSPSYLAASPGETITINCRASKSISKDLAWYQEKPGKTNKLLIYSGSTLQSGIPSRFSGSGSGTDFTLTISSLEPEDFAMYYCQQHNKYPYTFGGGTKLEIK
notes: Tested as an scFv in periplasmic extract of TG1 (pCANTAB 5E vector)
For the molecule B1, the koff is 0.000206 s⁻¹ and 0.00021 s⁻¹ and 0.000209 s⁻¹ and 0.000207 s⁻¹.

B2: 6G9 (scFv, V domains shown)
VH: B1 VH
VL: B1 VL with R24C, K27N, S30N, A34I
B2 yielded a koff of 0.000318 s⁻¹ and a 响应 of 0.163.

B3: 8A7 (scFv, V domains shown)
VH: B1 VH
VL: B1 VL with H91T, K93R
notes: 31 is used here; also called 抗体8A7
B3: the koff turned out to be 0.000178 s⁻¹ and the 响应 was determined as 0.471.

B4: 6G3 (scFv, V domains shown)
VH: B1 VH
VL: B1 VL with G51S, T53R, Q55S
notes: also called 抗体6G3
Regarding B4, the koff stood at 0.000192 s⁻¹ and the 响应 was determined as 0.425.

B5: 5B1 (scFv, V domains shown)
VH: B1 VH
VL: B1 VL with K93R
In turn, B5 gave a koff of 0.00012 s⁻¹ and a 响应 of 0.422.

B6: 2D2 (scFv, V domains shown)
VH: B1 VH with T28K, T30Q
VL: B1 VL
notes: also called 抗体2D2
The molecule B6 registered a koff of 0.00014 s⁻¹ and a 响应 of 0.145.

B7: 7G8 (scFv, V domains shown)
VH: B1 VH
VL: B1 VL with S50D, G51A, T53R, L54R, Q55G
notes: also called 抗体7G8
As for B7, the koff worked out at 0.000127 s⁻¹ and the 响应 was 0.463.

B8: 4D1 (scFv, V domains shown)
VH: B1 VH with T28Q
VL: B1 VL
notes: also called 抗体4D1
In turn, B8 registered a koff of 0.000198 s⁻¹ and a 响应 of 0.25.

B9: 2C5 (scFv, V domains shown)
VH: B1 VH with S31Q, G99S, N100Q, W101V, D102S
VL: B1 VL
Regarding B9, the dissociation rate constant (koff) is 0.000502 s⁻¹ and the 响应 was 0.177.

B10: 4A6 (scFv, V domains shown)
VH: B1 VH with T30Q
VL: B1 VL
The molecule B10 had a koff of 0.000323 s⁻¹ and a 响应 of 0.106.

B11: 3F8 (scFv, V domains shown)
VH: B1 VH with S31Q, N100I, W101S, D102Q, Y104F
VL: B1 VL
As to B11, the koff turned out to be 0.000558 s⁻¹ and the 响应 came to 0.207.

B12: 4C3 (scFv, V domains shown)
VH: B1 VH with S31Q, Y54F, Q62L, K63Q
VL: B1 VL
As to B12, the koff is 0.000322 s⁻¹ and the 响应 came out at 0.083.

B13: 5E10 (scFv, V domains shown)
VH: B1 VH
VL: B1 VL with G51S, T53Q, L54R, Q55L
In turn, B13 registered a koff of 0.000254 s⁻¹ and a 响应 of 0.24.

B14: 7F1 (scFv, V domains shown)
VH: B1 VH
VL: B1 VL with H91S
notes: also called 抗体7F1
With B14, the koff was 2.47e-05 s⁻¹ and the 响应 stood at 0.486.

Values taken from patent CN107840889A (SHANGHAI JIBEI BIOLOGICAL TECH CO LTD, dated 2018).
